Reference: US20250230240A1 (LAVA THERAPEUTICS N V, published 2025)
Substitutions are numbered along the chain they refer to. Numbers in names are those of the source. One block for each molecule: values may come before it.

Experiments:
[1] = target: Vγ9Vδ2 T cell receptor on expanded primary human Vγ9Vδ2 T cells (human) (UniProt Q99603); assay: cell-based or functional assay
[2] = target: T1, recombinant purified CD123-Fc fusion protein (Bio-Techne/R&D Systems) (human, UniProt P26951 19-305, limits assumed); assay: BLI (Octet Red96e), CD123-Fc on anti-human IgG Fc capture sensors; measured twice, SD 0.7
T1 construct: Bought protein; also called recombinant CD123; not shown: Fc part of the bought fusion protein
T1 sequence (looked up): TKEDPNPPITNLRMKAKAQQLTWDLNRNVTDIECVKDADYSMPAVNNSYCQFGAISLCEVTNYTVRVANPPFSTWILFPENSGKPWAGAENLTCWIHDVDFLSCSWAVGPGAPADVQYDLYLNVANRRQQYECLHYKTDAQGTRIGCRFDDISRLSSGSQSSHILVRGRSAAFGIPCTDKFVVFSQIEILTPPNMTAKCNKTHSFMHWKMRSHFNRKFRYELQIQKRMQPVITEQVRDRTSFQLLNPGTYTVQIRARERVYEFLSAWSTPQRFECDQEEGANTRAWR
Procedure: Different sensors were then dipped in different concentrations of humanized 1D2-5C8var1 variants, starting at 50 nM and two-fold dilutions thereof; dilutions were made in 10x kinetic buffer (10×KB) provided by the supplier. From the obtained sensorgrams, the kinetic association- and dissociation rate constants were determined by curve fitting. The association- and dissociation rate constants, when fitting was possible, were used to calculate the affinity of the humanized 1D2-5C8var1 variants for binding to CD123. […] For reference, the non-humanized (parental) 1D2 was included in these experiments.

[3] = target: T1, recombinant purified CD123-Fc fusion …; assay: BLI (Octet Red96e), CD123-Fc on anti-human IgG Fc capture sensors; measured twice, SD 0.4
[4] = target: T1, recombinant purified CD123-Fc fusion …; assay: BLI (Octet Red96e), CD123-Fc on anti-human IgG Fc capture sensors; *low binding (>20 nM), one measurement only
[5] = target: T1, recombinant purified CD123-Fc fusion …; assay: BLI (Octet Red96e), CD123-Fc on anti-human IgG Fc capture sensors; measured twice, SD 7.5
[6] = target: T1, recombinant purified CD123-Fc fusion …; assay: BLI (Octet Red96e), CD123-Fc on anti-human IgG Fc capture sensors; measured twice, SD 1.5
[7] = target: T1, recombinant purified CD123-Fc fusion …; assay: BLI (Octet Red96e), CD123-Fc on anti-human IgG Fc capture sensors; measured twice, SD 0.5
[8] = target: T1, recombinant purified CD123-Fc fusion …; assay: BLI (Octet Red96e), CD123-Fc on anti-human IgG Fc capture sensors; measured twice, SD 4.3
[9] = target: Vγ9Vδ2 T cell receptor on expanded primary human Vγ9Vδ2 T cells (human), Q99603; assay: cell-based or functional assay
Vγ9Vδ2 T cell receptor on expanded primary human Vγ9Vδ2 T cells (human), Q99603, sequence (Q99603 21-122, stated change not applied, chain 1 of 2): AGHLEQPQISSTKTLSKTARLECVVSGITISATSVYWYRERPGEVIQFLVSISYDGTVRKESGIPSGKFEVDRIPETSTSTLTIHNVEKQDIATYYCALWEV
Vγ9Vδ2 T cell receptor on expanded primary human Vγ9Vδ2 T cells (human), Q99603, sequence (A0JD36 20-115, stated change not applied, chain 2 of 2, further chain): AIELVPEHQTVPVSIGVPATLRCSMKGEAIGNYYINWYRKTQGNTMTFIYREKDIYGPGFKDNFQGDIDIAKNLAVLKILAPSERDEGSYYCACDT

[10] = target: Recombinant human Vγ9Vδ2-Fc fusion protein (human) (UniProt Q99603); assay: BLI (Octet RED96), Vγ9Vδ2-Fc captured on anti-human Fc sensors, VHH as analyte, 1:1 fit; mean of at least three measurements +/- SD
[11] = target: Recombinant human Vγ9Vδ2-Fc fusion protein (human) (UniProt Q99603); assay: BLI (Octet), single VHH on recombinant Vγ9Vδ2 TCR protein
[12] = target: Recombinant human Vγ9Vδ2-Fc fusion protein (human) (UniProt Q99603); assay: BLI (Octet), single VHH on recombinant Vγ9Vδ2 TCR

Vγ9Vδ2 T cell receptor on expanded primary human Vγ9Vδ2 T cells (human), sequence (Q99603 21-122, stated change not applied, chain 1 of 2): as the sequence (Q99603 21-122, stated change not applied, chain 1 of 2) above
Vγ9Vδ2 T cell receptor on expanded primary human Vγ9Vδ2 T cells (human), sequence (A0JD36 20-115, stated change not applied, chain 2 of 2, further chain): as the sequence (A0JD36 20-115, stated change not applied, chain 2 of 2, further chain) above

B1: SEQ ID NO 1 (Table 12): non-humanized (parental) anti-CD123 VHH 1D2 (VHH)
VHH: EVQLVESGGGLVQAGGSLRLSCAASGRTASSYVMGWFRQAPGKEREFVAVINWNGDSTYYTDSVKGRFAISRDNAKNTVYLQMNSLKPEDTAVYYCAADTRREWYRDGYWGPPARYEYDYRGQGTQVTVSS
notes: also called parental 1D2
Kd [2]: 3.1 nM

B2: SEQ ID NO 26 (Table 12): humanized 1D2 variant as bispecific VHH with 5C8var1 (bispecific antibody)
chain: EVQLVESGGGLVQPGGSLRLSCAASGRTASSYVMGWFRQAPGKEREFVSVINWNGDSTYYADSVKGRFTISRDNSKNTLYLQMNSLRAEDTAVYYCAADTRREWYRDGYWGPPARYEYDYRGQGTQVTVSSGGGGSEVQLLESGGGSVQPGGSLRLSCAASGRPFSNYAMSWFRQAPGKEREFVSAISWSGGSTSYADSVKGRFTISRDNSKNTLYLQMNSLRAEDTAVYYCAAQFSGADYGFGRLGIRGYEYDYWGQGTQVTVSS
Kd [3]: 7.2 nM

B3: SEQ ID NO 33 (Table 12): humanized 1D2 variant as bispecific VHH with 5C8var1 (bispecific antibody)
chain: B2 chain with G35S, E44G, R45L, F47W, S49A, L79V, Q126L
Kd [4]: 44.1 nM

B4: SEQ ID NO 29 (Table 12): humanized 1D2 variant as bispecific VHH with 5C8var1 (bispecific antibody)
chain: B2 chain with L11V, G35S, F47W, S49A, Q126T
Kd [5]: 20 nM

B5: SEQ ID NO 27 (Table 12): humanized 1D2 variant as bispecific VHH with 5C8var1 (bispecific antibody)
chain: B2 chain with F37V, F47W, Q126L
Kd [4]: 24.5 nM

B6: SEQ ID NO 30 (Table 12): humanized 1D2 variant as bispecific VHH with 5C8var1 (bispecific antibody)
chain: B2 chain with G35S, S49A, L79V, Q126L
Kd [6]: 7.7 nM

B8: SEQ ID NO 31 (Table 12): humanized 1D2 variant as bispecific VHH with 5C8var1 (bispecific antibody)
chain: B2 chain with F37V, E44G, R45L, F47W, Q126L
Kd [4]: 29.1 nM

B9: SEQ ID NO 28 (Table 12): humanized 1D2 variant as bispecific VHH with 5C8var1 (bispecific antibody)
chain: B2 chain with G35S, F47W, S49A, L79V, Q126L
Kd [8]: 14.9 nM

Further lines, with some results ahead:

EC50 degranulation (CD107A+ Vγ9Vδ2 T cells, 4 h, A431 target cells) [1]: 10 pM
Molecule: bispecific VHH 7D12-5C8 (non-humanized) (bispecific antibody)
EC50 cytotoxicity (A431 tumour cell kill, 24 h) [1]: 9 pM

Kd [7]: 2.6 nM
B7: SEQ ID NO 34 (Table 12): humanized 1D2 variant as bispecific VHH with 5C8var1 (bispecific antibody)
chain: B2 chain with P14A, F47W, S49A, A61T, T69A, S75A, L79V

EC50 degranulation (CD107A+ Vγ9Vδ2 T cells, 4 h, A431 target cells) [9]: 11 pM
B10: bispecific VHH 7D12var8-5C8var1-Y105F (bispecific antibody)
chain: EVQLVESGGGSVQPGGSLRLSCAASGRTSRSYGMGWFRQAPGKEREFVSGISWRGDSTGYADSVKGRFTISRDNAKNTVDLQMNSLRAEDTAVYYCAAAAGSAWYGTLYEYDYWGQGTLVTVSSGGGGSEVQLLESGGGSVQPGGSLRLSCAASGRPFSNYAMSWFRQAPGKEREFVSAISWSGGSTSYADSVKGRFTISRDNSKNTLYLQMNSLRAEDTAVYYCAAQFSGADFGFGRLGIRGYEYDYWGQGTQVTVSS
EC50 cytotoxicity (A431 tumour cell kill, 24 h) [9]: 2.5 pM

Kd [10]: 0.81 nM
B11: VHH 5C8var1 (VHH)
VHH: EVQLLESGGGSVQPGGSLRLSCAASGRPFSNYAMSWFRQAPGKEREFVSAISWSGGSTSYADSVKGRFTISRDNSKNTLYLQMNSLRAEDTAVYYCAAQFSGADYGFGRLGIRGYEYDYWGQGTQVTVSS
modifications: Y105 partly sulfated (as found for 5C8 and for 1D12var5-5C8var1)

Kd [11]: 1.2 nM
B12: VHH 5C8var1-Y105F/R109A (VHH)
VHH: B11 VHH with Y105F, R109A

Kd [10]: 0.78 nM
Kd [11]: 0.74 nM
B13: VHH 5C8var1-Y105F (VHH)
VHH: B11 VHH with Y105F

Kd [10]: 1.59 nM
B14: VHH 5C8var1-Y105S (VHH)
VHH: B11 VHH with Y105S

fold reduction of affinity against 5C8var1-Y105F [12]: 10 fold
Kd [11]: 9.2 nM
B15: VHH 5C8var1-Y105F/G108A (VHH)
VHH: B11 VHH with Y105F, G108A

Kd [11]: 0.82 nM
B16: VHH 5C8var1-Y105F/R109K (VHH)
VHH: B11 VHH with Y105F, R109K
